Source: paper PMC7374468, “Characterization of highly active 2-keto-3-deoxy-L-arabinonate and 2-keto-3-deoxy-D-xylonate dehydratases in terms of the biotransformation of hemicellulose sugars to chemicals” (Applied Microbiology and Biotechnology, 2020)

Tests used:
purified protein [1] = substrate: O=C(O)C(=O)C[C@@H](O)CO; experiment: purified protein; format: biochemical, Azospirillum brasilense; settings: 2 mM NAD+ for coupling enzyme, 5 mM MgCl2, 50 mM HEPES pH 7.5, 25 °C
[2] = substrate: O=C(O)C(=O)C[C@H](O)CO; experiment: purified protein, by the assay type; design: coupled assay with PpKGSADH, NADH formation at 340 nm, Michaelis-Menten fit, 25 °C, pH 7.5; settings: pH 7.5; 25.0 °C
Description: (§1) To determine dehydratase activity, a coupled-assay with PpKGSADH as auxiliary enzyme was used to link the oxidation of KGSA to α-KG using NAD^+, as was described in a previous study (Beer et al. [2017]). The measurement was performed in a 96-well F-bottom plate (Greiner Bio-One, Germany). 20 μL of a diluted enzyme was added to a 96-well plate. A total of 180 μL of reaction solution containing different concentrations of either D-KDP or L-KDP with 0.5 U/mL PpKGSADH, 2 mM NAD^+, 5 mM MgCl2, 50 mM HEPES pH 7.5 (end concentration) were added subsequently. The measurement was performed with a Multiskan spectrophotometer (Thermo Scientific, Germany) by measuring the development of NADH at 340 nm at 25 °C. Enzyme activity (kcat) was defined as the number of NADH molecules formed per molecule of enzyme per second. Measurements were performed in triplicate.

purified protein [3] = substrate: O=C(O)C(=O)C[C@H](O)CO; experiment: purified protein; format: biochemical, Caulobacter vibrioides; settings: 2 mM NAD+ for coupling enzyme, 5 mM MgCl2, 50 mM HEPES pH 7.5, 25 °C
[4] = substrate: O=C(O)C(=O)C[C@@H](O)CO; experiment: purified protein, by the assay type; design: coupled assay with PpKGSADH, NADH formation at 340 nm, Michaelis-Menten fit, 25 °C, pH 7.5; settings: pH 7.5; 25.0 °C
Description: as §1

purified protein [5] = substrate: O=C(O)C(=O)C[C@H](O)CO; experiment: purified protein; format: biochemical, Paraburkholderia xenovorans; settings: 2 mM NAD+ for coupling enzyme, 5 mM MgCl2, 50 mM HEPES pH 7.5, 25 °C
purified protein [6] = substrate: O=C(O)C(=O)C[C@H](O)CO; experiment: purified protein; format: biochemical, Pseudomonas putida; settings: 2 mM NAD+ for coupling enzyme, 5 mM MgCl2, 50 mM HEPES pH 7.5, 25 °C
purified protein [7] = substrate: O=C(O)C(=O)C[C@H](O)CO; experiment: purified protein; format: biochemical, Herbaspirillum seropedicae; settings: 2 mM NAD+ for coupling enzyme, 5 mM MgCl2, 50 mM HEPES pH 7.5, 25 °C
purified protein [8] = substrate: O=C(O)C(=O)C[C@@H](O)CO; experiment: purified protein; format: biochemical, Cupriavidus necator; settings: 2 mM NAD+ for coupling enzyme, 5 mM MgCl2, 50 mM HEPES pH 7.5, 25 °C
purified protein [9] = substrate: O=C(O)C(=O)C[C@H](O)CO; experiment: purified protein; format: biochemical, Cupriavidus necator; settings: 2 mM NAD+ for coupling enzyme, 5 mM MgCl2, 50 mM HEPES pH 7.5, 25 °C

Protein	Km [2] [µM]	kcat [2] [s⁻¹]	kcat/Km [2] [M⁻¹ s⁻¹]	Km [4] [µM]	kcat [4] [s⁻¹]	kcat/Km [4] [M⁻¹ s⁻¹]	further results
AbL-KdpD (Azospirillum brasilense) (protein, N-terminal His6 tag (kept), codon-optimised synthetic gene, E. coli BL21(DE3), HisTrap purified, lower purity) MTSSSTPRHRGIFPVVPTTFADTGELDLASQKRAVDFMIDAGSDGLCILANFSEQFAITDDERDVLTRTILEHVAGRVPVIVTTSHYSTQVCAARSLRAQQLGAAMVMAMPPYHGATFRVPEAQIFEFYARVSDAIAIPIMVQDAPASGTALSAPFLARMAREIEQVAYFKIETPGAANKLRELIRLGGDAIEGPWDGEEAITLLADLHAGATGAMTGGGFPDGIRPILEAWREGRHDDAYARYQAWLPLINHENRQSGILTAKALMREGGVIASERPRHPMPELHPDTRAELLAIARRLDPLVLRWAH	6810 ± 350	6.65 ± 0.1	980 ± 230	–	–	–	Km (purified protein [1]): 190 ± 20 µM; kcat (purified protein [1]): 13.6 ± 0.3 s⁻¹; kcat/Km (purified protein [1]): 71300 ± 300 M⁻¹ s⁻¹
CcD-KdpD2 (Caulobacter vibrioides NA1000) (protein, C-terminal His6 tag (kept), pET vector, E. coli BL21(DE3), HisTrap purified) MGVSEFLPEDWKAATLLGRIDFGEGPTPVLVRGGRVEDVSKIAPTVADLMNAFQPGAVIPRGEDKGPLEALDIRPVWEDPDGAAPVKLLAPVDLQCLKAAGVTFAVSTLERVIEERARGDAGEALKIRTLLAERMGGDLKSVEPGSQGAQRLKDALIADGLWSQYLEVAIGPDAEIFTKGPTLSSMGWGDQVGVRYDSHWNNPEPEVVLLCDGSGLIRGAALGNDVNLRDFEGRSALLLSKAKDNNASCAIGPFFRLFDETFGLDDVRSAEVELKITGRDNFVLDGKSNMSLISRDPAVLAGQAYGKQHQYPDGFALFLGTMFAPIQDRDTPGQGFTHKVGDRVRVSTPKLGVLENEVTTCDKAKPWTFGISALIRNLAGRGLL	–	–	–	3960 ± 130	9.67 ± 0.08	2440 ± 180	Km (purified protein [3]): 290 ± 10 µM; kcat (purified protein [3]): 55.8 ± 0.4 s⁻¹; kcat/Km (purified protein [3]): 190600 ± 200 M⁻¹ s⁻¹
PxD-KdpD (Paraburkholderia xenovorans LB400) (protein, C-terminal His6 tag (kept), codon-optimised synthetic gene, E. coli BL21(DE3), HisTrap purified) MSATSPSSFLPDDLGQALLVGRVWRKTDQHEGPSVVVVRGGEVFDITATVPTTADLFDREDAAPLARTAPGVSLGAVAQLIASNLPGAAAPALRLLAPCDVQAIKACGVTFAVSLIERVIEEQAAGDPAKAKEVRDTIASMIGTDLSKIEPGSDAAMKLKAELERRGAWSQYMEVGIGPDAEVFSKSQPMSAVGFGADVGLLAASTWNNPEPEIVLAVNSRGEIVGATLGNDVNLRDIEGRSALLLGKCKDNNGSCAIGPFVRLFDESFSLDSVRTASVALRVEGADDGFVLEGVSHMSEISRDPANLVAQTWGRHHQYPDGFMLFLGTMFSPIKDRDAPGAGFTHHLGDLVTISTPQLGALTNTVRLSTEIEPWTFGVRALYRNLAARGLLASA	–	–	–	5080 ± 170	18.73 ± 0.15	3690 ± 180	Km (purified protein [5]): 280 ± 10 µM; kcat (purified protein [5]): 63.6 ± 0.4 s⁻¹; kcat/Km (purified protein [5]): 229800 ± 200 M⁻¹ s⁻¹
PpD-KdpD (Pseudomonas putida KT2440) (protein, C-terminal His6 tag (kept), pET vector, E. coli BL21(DE3), HisTrap purified) MTDRTNANQPLPLSHDASVFDRGSWVGRVWLPEQGPAVVLVKAGAVYDISTHVATVSALLEVDDPVAYLRALPLAEPLIALPALLGNSDPTRRTPHQPWLLAPIDLQAVKAAGVTFATSLLERVVEEQAKGDPAKADAIRDTLASRIGADLSQIVPGSAQAEALRKVLVEQGLWSQYLEVGIGPDAEVFTKAQPLSAVGHGADIGIHPKSSWNNPEPEVVLAVSSNGSIKGAMLGNDVNLRDFEGRSALLLSKAKDNNASTALGPLLRLFDESFGLDDVRAAEVDLRVEGEDGFILSGRSSMRQISRDPQDLVQQTLNENHQYPDGLVLFLGTLFAPKQDRDQPGNGFTHKPGDVVSISNPQLGTLCNRVTTSDLAPQWDFGLRALIDNLGRRGLLEVAATARPL	–	–	–	6120 ± 210	19.64 ± 0.17	3210 ± 190	Km (purified protein [6]): 350 ± 10 µM; kcat (purified protein [6]): 75.9 ± 0.6 s⁻¹; kcat/Km (purified protein [6]): 219900 ± 200 M⁻¹ s⁻¹
HsD-KdpD (Herbaspirillum seropedicae SmR1) (protein, C-terminal His6 tag (kept), pET vector, E. coli BL21(DE3), HisTrap purified) MAHTFSLQAHLPEDHAQATLIGRIWQPGVGPVLVRIDADGAYDLTLIAATSSELLELDNPAAAVRSATNMTRIATLQELLDNADAAGRDTSRPWLLAPIDLQAVKASGVTFVASMLERVIEEQARGDAGKAESVRKAITAVIGDNLSSVVPGSPEAARLKEVLLDQGVWSQYLEVGIGPDAEIFTKAQPMSSVGLGDEVGIHPKSAWNNPEPEIVLAINSRGKVVGATLGNDVNLRDFEGRSALLLGKAKDNNASCAVGPFIRLFDANFSIDDVRRAELTMRVDGTEGFTLKGSSSMSMISRDPLQLVEHAIGPNHQYPDGLVLFLGTMFAPTQDRFGPGQGFTHQVADIVTISTPKLGALVNTVNFSDQTAPWTFGLTALFKNLADRKLI	–	–	–	3180 ± 180	16.9 ± 0.21	5320 ± 230	Km (purified protein [7]): 170 ± 10 µM; kcat (purified protein [7]): 58.2 ± 0.4 s⁻¹; kcat/Km (purified protein [7]): 347900 ± 200 M⁻¹ s⁻¹
CcD-KdpD1 (Caulobacter vibrioides CB15) (protein, C-terminal His6 tag (kept), codon-optimised synthetic gene, E. coli BL21(DE3); 58-residue N-terminal extension) MVCRRLLAWTARAREAEDFALVRQPTCRPHMLALPSADERAPPTVSALQTLEFWGDDAVGVSEFLPEDWKAATLLGRIDFGEGPTPVLVRGGRVEDVSKIAPTVADLMNAFQPGAVIPRGEDKGPLEALDIRPVWEDPDGAAPVKLLAPVDLQCLKAAGVTFAVSTLERVIEERARGDAGEALKIRTLLAERMGGDLKSVEPGSQGAQRLKDALIADGLWSQYLEVAIGPDAEIFTKGPTLSSMGWGDQVGVRYDSHWNNPEPEVVLLCDGSGLIRGAALGNDVNLRDFEGRSALLLSKAKDNNASCAIGPFFRLFDETFGLDDVRSAEVELKITGRDNFVLDGKSNMSLISRDPAVLAGQAYGKQHQYPDGFALFLGTMFAPIQDRDTPGQGFTHKVGDRVRVSTPKLGVLENEVTTCDKAKPWTFGISALIRNLAGRGLL	–	–	–	2810 ± 120	7.99 ± 0.08	2840 ± 210	Km (purified protein [3]): 250 ± 10 µM; kcat (purified protein [3]): 45.6 ± 0.3 s⁻¹; kcat/Km (purified protein [3]): 185700 ± 200 M⁻¹ s⁻¹
CnL-KdpD (Nhis) (Cupriavidus necator H16) (protein, N-terminal His6 tag (kept), pET vector, E. coli BL21(DE3), HisTrap purified; strain given inconsistently (H16 gDNA vs N-1)) MTRTPSPTVYRGVFPVAPTVFDAQGGLDLDGQRRCIDFMIDAGSHGICILANFSEQFVLSDDERNVLMKTVLEHVDGRVPVIVTTTHFSSRLCAERSRAAQDAGAAMVMVMPPYHGATIRVPERSIYEFFATVSDAIDIPIMIQDAPVSGTTLSAPFLARMAREIGNVSYFKIEVPQAAAKLRELIELGGDAIVGPWDGEEAITLMADLEAGATGAMTGAGFPDGIRQILDAWQAGDAELAAQRYQQWLPLINYENRQGWLATSKVLMQAGGVIASDAVRHPLQPMHPATREGLLKIARRLDPLVLRWAR	4080 ± 210	12 ± 0.16	2950 ± 230	–	–	–	Km (purified protein [8]): 170 ± 0 µM; kcat (purified protein [8]): 23.4 ± 0.1 s⁻¹; kcat/Km (purified protein [8]): 137200 ± 200 M⁻¹ s⁻¹
CnL-KdpD (Chis) (Cupriavidus necator H16) (protein, C-terminal His6 tag (kept), pET vector, E. coli BL21(DE3), HisTrap purified; strain given inconsistently (H16 gDNA vs N-1)) MTRTPSPTVYRGVFPVAPTVFDAQGGLDLDGQRRCIDFMIDAGSHGICILANFSEQFVLSDDERNVLMKTVLEHVDGRVPVIVTTTHFSSRLCAERSRAAQDAGAAMVMVMPPYHGATIRVPERSIYEFFATVSDAIDIPIMIQDAPVSGTTLSAPFLARMAREIGNVSYFKIEVPQAAAKLRELIELGGDAIVGPWDGEEAITLMADLEAGATGAMTGAGFPDGIRQILDAWQAGDAELAAQRYQQWLPLINYENRQGWLATSKVLMQAGGVIASDAVRHPLQPMHPATREGLLKIARRLDPLVLRWAR	6400 ± 170	11.01 ± 0.08	1720 ± 160	–	–	–	Km (purified protein [8]): 160 ± 10 µM; kcat (purified protein [8]): 22.5 ± 0.2 s⁻¹; kcat/Km (purified protein [8]): 137500 ± 200 M⁻¹ s⁻¹
CnD-KdpD (Cupriavidus necator H16) (protein, C-terminal His6 tag (kept), pET vector, E. coli BL21(DE3), HisTrap purified; strain given inconsistently (H16 gDNA vs N-1)) MALPLTLSATQTLPADGLAGTLVGRAWIPASDGAPAGPAVVVLRPAGVFDISDVAPTMSTLLEQGDPVTVVHNTPGRWIGKLDDLLANTADPRGSDSVARLLAPCDLQVIKAAGVTFAGSLVERVIEEQTKGDPQGAAEVRNRIQALVGERLSRIRPGSREAGELKALLIEHGMWSQYLEVGIGPDAEIFTKAPLLSALGTGTEIGLHPGSAWNNPEPEIVLAINSRGDVLGATLGNDVNLRDFEGRSALLLGKAKDNNGSCAIGPFLRLFDQSLSLDDVRRATVDLRVDGLDGFVLSGTSSMDQITRDPLELAEQVMGATHQYPDGAMLFLGTLFAPVEDRDTAGGGFTHKDGDLVTISSRQLGSLVNRVGRSDRIAPWTFGVRALMANLAARGHTTF	–	–	–	2490 ± 200	4.24 ± 0.07	1700 ± 280	Km (purified protein [9]): 230 ± 20 µM; kcat (purified protein [9]): 13.8 ± 0.2 s⁻¹; kcat/Km (purified protein [9]): 58900 ± 400 M⁻¹ s⁻¹
